Reference: patent US11230581B2, “Peptides and combination of peptides for use in immunotherapy against ovarian cancer and other cancers” (Immatics Biotechnologies GmbH, priority 2015, dated 2022)

Target: HLA-A*02:01 (Homo sapiens, UniProt P04439, D140Y/D185E/D98H/E176V/E277Q/G131W/G231S/I119V/I121R/I166T/I218V/L300P/L318F/N151K/N90K/P208A/P217A/Q86G/Q94H/R138H/R169H/T345S)
Experiment: MHC binding assay (UV-ligand exchange, β2m ELISA, peptide exchange yield)
Conditions: binding of HLA-class I restricted peptides to HLA-A*02:01, UV-ligand exchange
Summary of the method: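 Peptide-MHC complexes formed by UV-ligand exchange, cleaving a UV-sensitive placeholder peptide in favour of the test peptide. Exchange yield measured by ELISA: monomers diluted 100-fold onto streptavidin-coated plates, 1 h 37 °C, detected with 2 ug/ml HRP anti-β2m and TMB, absorbance at 450 nm.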

Row | Substance | Peptide exchange (MHC class I binding score, peptide exchange yield)
1 | 588 (SLLPLSHLV; listed as Homo sapiens) [compound 588] | “+++” (≥50 = +++)
2 | 589 (KLYPQLPAEI; listed as Homo sapiens) [compound 589] | “+++” (≥50 = +++)
3 | 590 (SLIEKLWQT; listed as Homo sapiens) [compound 590] | “++” (≥20% = ++)
4 | 591 (SMAELDIKL; listed as Homo sapiens) [compound 591] | “+++” (≥50 = +++)
5 | 592 (RLLSAAENFL; listed as Homo sapiens) [compound 592] | “+++” (≥50 = +++)
6 | 593 (GLPRFGIEMV; listed as Homo sapiens) [compound 593] | “+++” (≥50 = +++)
7 | 594 (IMLKGDNITL; listed as Homo sapiens) [compound 594] | “+++” (≥50 = +++)
8 | 595 (VLLSIYPRV; listed as Homo sapiens) [compound 595] | “+++” (≥50 = +++)
9 | 596 (ALLDQTKTLAESAL; listed as Homo sapiens) [compound 596] | “+++” (≥50 = +++)
10 | 597 (KLLEGQVIQL; listed as Homo sapiens) [compound 597] | “+++” (≥50 = +++)
11 | 598 (FLFPHSVLV; listed as Homo sapiens) [compound 598] | “+++” (≥50 = +++)
12 | 599 (YLLNDASLISV; listed as Homo sapiens) [compound 599] | “+++” (≥50 = +++)
13 | 600 (ALAAPDIVPAL; listed as Homo sapiens) [compound 600] | “+++” (≥50 = +++)
14 | 601 (SAFPFPVTV; listed as Homo sapiens) [compound 601] | “+++” (≥50 = +++)
15 | 602 (YLLEQIKLIEV; listed as Homo sapiens) [compound 602] | “++++” (≥75% = ++++)
16 | 603 (FLIEPEHVNTV; listed as Homo sapiens) [compound 603] | “++” (≥20% = ++)
17 | 604 (SILDRDDIFV; listed as Homo sapiens) [compound 604] | “+++” (≥50 = +++)
18 | 605 (KLYEAVPQL; listed as Homo sapiens) [compound 605] | “+++” (≥50 = +++)
19 | 606 (ALWETEVYI; listed as Homo sapiens) [compound 606] | “+++” (≥50 = +++)

Row | Substance | Peptide exchange (MHC class I binding score, peptide exchange yield)
20 | 607 (RLYSGISGLEL; listed as Homo sapiens) [compound 607] | “+++” (≥50 = +++)
21 | 608 (SLLSVSHAL; listed as Homo sapiens) [compound 608] | “+++” (≥50 = +++)
22 | 609 (ALWKQLLEL; listed as Homo sapiens) [compound 609] | “+++” (≥50 = +++)
23 | 610 (LLAPTPYIIGV; listed as Homo sapiens) [compound 610] | “+++” (≥50 = +++)
24 | 611 (YLLDDGTLVV; listed as Homo sapiens) [compound 611] | “++++” (≥75% = ++++)
25 | 612 (YLYNEGLSV; listed as Homo sapiens) [compound 612] | “+++” (≥50 = +++)
26 | 613 (RLLPPGAVVAV; listed as Homo sapiens) [compound 613] | “+++” (≥50 = +++)
27 | 614 (LLLPDQPPYHL; listed as Homo sapiens) [compound 614] | “+++” (≥50 = +++)
28 | 615 (VLPPDTDPA; listed as Homo sapiens) [compound 615] | “++” (≥20% = ++)
29 | 616 (VLIDEVESL; listed as Homo sapiens) [compound 616] | “+++” (≥50 = +++)
30 | 617 (ALMYESEKVGV; listed as Homo sapiens) [compound 617] | “+++” (≥50 = +++)
31 | 618 (VLFDSESIGIYV; listed as Homo sapiens) [compound 618] | “+++” (≥50 = +++)
32 | 619 (ALQDRVPLA; listed as Homo sapiens) [compound 619] | “+++” (≥50 = +++)
33 | 620 (KLLNKIYEA; listed as Homo sapiens) [compound 620] | “++++” (≥75% = ++++)
34 | 621 (VLMDRLPSLL; listed as Homo sapiens) [compound 621] | “++++” (≥75% = ++++)
35 | 622 (RLLGEEVVRVLQA; listed as Homo sapiens) [compound 622] | “+++” (≥50 = +++)
36 | 623 (YLVEDIQHI; listed as Homo sapiens) [compound 623] | “+++” (≥50 = +++)
37 | 635 (SLDSTLHAV; listed as Homo sapiens) [compound 635] | “+++” (≥50 = +++)
